In patent US20250000946A1 (WUXI BIOLOGICS IRELAND, published 2025):
Read-outs that look alike come from different tables or passages of the source.

Columns and labels:
[1] = target: T1, Human IL-2Rβ/γ (intermediate affinity IL-2 receptor) (human, UniProt P14784 27-551; P31785 23-369); assay: cell-based or functional assay
T1 sequence (looked up) 1: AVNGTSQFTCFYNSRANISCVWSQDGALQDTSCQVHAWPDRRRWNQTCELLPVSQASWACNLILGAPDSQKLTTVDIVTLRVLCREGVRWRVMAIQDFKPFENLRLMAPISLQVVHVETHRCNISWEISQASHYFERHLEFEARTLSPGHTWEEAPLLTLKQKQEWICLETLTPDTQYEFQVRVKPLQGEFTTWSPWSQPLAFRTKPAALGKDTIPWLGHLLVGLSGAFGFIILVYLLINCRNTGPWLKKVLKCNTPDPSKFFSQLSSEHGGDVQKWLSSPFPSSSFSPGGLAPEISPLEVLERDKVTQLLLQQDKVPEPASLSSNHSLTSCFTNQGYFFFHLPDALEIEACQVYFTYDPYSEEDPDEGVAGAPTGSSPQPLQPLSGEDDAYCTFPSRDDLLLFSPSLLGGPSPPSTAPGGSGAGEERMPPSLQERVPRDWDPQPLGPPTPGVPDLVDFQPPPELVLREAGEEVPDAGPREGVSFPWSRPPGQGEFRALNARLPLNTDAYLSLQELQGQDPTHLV
T1 sequence (looked up) 2: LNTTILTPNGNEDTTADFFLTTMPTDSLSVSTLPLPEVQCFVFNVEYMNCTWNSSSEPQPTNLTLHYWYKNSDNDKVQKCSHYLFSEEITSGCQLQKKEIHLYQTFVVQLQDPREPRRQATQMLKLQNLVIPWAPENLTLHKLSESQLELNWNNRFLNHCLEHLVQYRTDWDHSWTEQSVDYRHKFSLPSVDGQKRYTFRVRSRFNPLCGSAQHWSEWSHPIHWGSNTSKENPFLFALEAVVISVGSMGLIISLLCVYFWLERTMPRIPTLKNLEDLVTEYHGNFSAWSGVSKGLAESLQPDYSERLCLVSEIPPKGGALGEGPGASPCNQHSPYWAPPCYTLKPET

[2] = target: T2, Human IL-2Rα/β/γ complex (high affinity IL-2 receptor) (human, UniProt P01589 22-272; P14784 27-551; P31785 23-369); assay: cell-based or functional assay
T2 sequence (looked up) 1: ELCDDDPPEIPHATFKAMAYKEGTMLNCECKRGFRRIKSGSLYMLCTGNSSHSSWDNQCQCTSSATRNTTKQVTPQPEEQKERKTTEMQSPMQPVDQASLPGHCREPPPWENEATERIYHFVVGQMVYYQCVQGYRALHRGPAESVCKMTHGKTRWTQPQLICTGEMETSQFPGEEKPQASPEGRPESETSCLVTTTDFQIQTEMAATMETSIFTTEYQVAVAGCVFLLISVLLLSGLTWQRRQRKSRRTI
T2 sequence (looked up) 2: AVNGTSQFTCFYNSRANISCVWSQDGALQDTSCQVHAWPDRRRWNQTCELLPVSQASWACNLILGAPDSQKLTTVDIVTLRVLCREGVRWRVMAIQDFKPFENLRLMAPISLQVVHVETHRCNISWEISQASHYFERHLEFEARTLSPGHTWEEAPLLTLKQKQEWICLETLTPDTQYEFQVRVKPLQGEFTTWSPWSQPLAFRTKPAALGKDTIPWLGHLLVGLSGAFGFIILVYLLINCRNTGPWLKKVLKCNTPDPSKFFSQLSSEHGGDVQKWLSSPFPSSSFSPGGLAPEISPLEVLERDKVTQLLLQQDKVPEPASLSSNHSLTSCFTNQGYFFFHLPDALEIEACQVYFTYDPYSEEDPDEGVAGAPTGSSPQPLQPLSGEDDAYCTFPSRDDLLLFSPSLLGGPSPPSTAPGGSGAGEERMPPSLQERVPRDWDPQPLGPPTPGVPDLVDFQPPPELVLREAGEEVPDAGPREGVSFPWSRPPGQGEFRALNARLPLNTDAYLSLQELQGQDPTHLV
T2 sequence (looked up) 3: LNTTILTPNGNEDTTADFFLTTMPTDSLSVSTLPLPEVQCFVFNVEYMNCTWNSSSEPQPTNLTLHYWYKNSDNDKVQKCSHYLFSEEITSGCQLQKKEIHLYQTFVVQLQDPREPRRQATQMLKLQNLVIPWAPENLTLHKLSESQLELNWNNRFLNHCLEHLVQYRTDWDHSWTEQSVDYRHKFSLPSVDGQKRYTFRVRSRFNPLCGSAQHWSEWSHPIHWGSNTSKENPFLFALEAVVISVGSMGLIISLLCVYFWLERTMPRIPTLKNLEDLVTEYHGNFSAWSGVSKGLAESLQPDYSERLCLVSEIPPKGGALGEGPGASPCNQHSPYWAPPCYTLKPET

[3] = target: T2, Human IL-2Rα/β/γ complex (high affinity …); assay: FACS, MJ20 cells
Method: (§1) Human cutaneous T cell lymphoma HH cells, malignant non-Hodgkin's lymphoma NK92 cells and cutaneous T cell lymphoma MJ20 cells were used for binding assay. They both constitutively express IL-2Rβ (CD122) and […] (CD132), and NK92 and MJ20 also expresses IL-2Rα (CD25). HH, NK92 and MJ20 cells were cultured following ATCC guidance, then transferred to a 96-plate for binding analysis. Cells were incubated with IL-2/Fc fusion proteins at the indicated concentrations for 30 min at 4° C. to avoid internalization. Binding was detected by 2nd antibody of PE-anti-human Fc at 4° C. for another 30 min. The median fluorescence intensity (MFI) on HH and NK92 cells was measured using FACS.
(§2) Affinity of IL-2 variants to IL-2Rα/β/γ supported the same results (FIG. 8 and Table 7). […] And T2U0.E44-26, T2U0.E44-27, T2U0.E44-29 and T2U0.E44-30 induced hundreds to thousands affinity reduction in Treg compared to T2U0.E44-1. Binding curves in MJ20 cells (IL-2Rα/β/γ) also achieved similar trend (FIG. 8b). As a result, the method of C-terminal truncation and substitution of 129 was available to achieve IL-2Rβγ attenuated IL-2 variants.

[4] = target: T2, Human IL-2Rα/β/γ complex (high affinity …); assay: FACS, MJ20 cells; EC50 fold vs T2U0.E44-1
Method: as §1, §2

[5] = target: T2, Human IL-2Rα/β/γ complex (high affinity …); assay: FACS, NK92 cells; EC50 fold vs T2U0.E44-1
Method: as §1

[6] = target: T1, Human IL-2Rβ/γ (intermediate affinity …); assay: FACS, HH cells; EC50 fold vs T2U0.E44-1
Method: as §1

[7] = target: T1, Human IL-2Rβ/γ (intermediate affinity …); assay: cell-based or functional assay; remark: listed apart in the source
[8] = target: T2, Human IL-2Rα/β/γ complex (high affinity …); assay: cell-based or functional assay; remark: listed apart in the source
[9] = target: T2, Human IL-2Rα/β/γ complex (high affinity …); assay: FACS, NK92 cells
Method: as §1

[10] = target: T1, Human IL-2Rβ/γ (intermediate affinity …); assay: FACS, HH cells
Method: as §1

Potency in human CD8+ T EC50 [1] [nM]	Potency reduction (CD8+ T) [1] [fold]	Potency in human Treg EC50 [2] [nM]	Potency reduction (Treg) [2] [fold]	EC50 [3] [nM]	Affinity reduction [4] [fold]	Affinity reduction [5] [fold]	Affinity reduction [6] [fold]	Potency in human CD8+ T EC50 [7] [nM]	Potency reduction (CD8+ T) [7] [fold]	Potency in human Treg EC50 [8] [nM]	Potency reduction (Treg) [8] [fold]	EC50 [9] [nM]	EC50 [10] [nM]	Binder
493	24.7	2.64	1050	183	13	–	–	–	–	–	–	–	–	W3XX115-T2U0.E44-30.uIgG4V1 (Fc fusion, IL-2 del STLT and I129T; E44 format, IgG4) APTSSSTKKTQLQLEHLLLDLQMILNGINNYKNPKLTRMLTFKFYMPKKATELKHLQCLEEELKPLEEVLNLAQSKNFHLRPRDLISNINVIVLELKGSETTFMCEYADETATIVEFLNRWITFCQSITESKYGPPCPPCPAPEFLGGPSVFLFPPKPKDTLMISRTPEVTCVVVDVSQEDPEVQFNWYVDGVEVHNAKTKPREEQFNSTYRVVSVLTVLHQDWLNGKEYKCKVSNKGLPSSIEKTISKAKGQPREPQVYTLPPCQEEMTKNQVSLWCLVKGFYPSDIAVEWESNGQPENNYKTTPPVLDSDGSFFLYSRLTVDKSRWQEGNVFSCSVMHEALHNHYTQKSLSLSLG heavy: EIQLQQSGPELVKPGASVKVSCKASGYSFTDYNMYWVKQSHGESLEWIGYIDPYNGGTRYNQKFKGKATLTVDKSSSTAFMHLNSLTSEDSAVYYCARNGHWDGAWFAYWGQGTLVTVSAASTKGPSVFPLAPCSRSTSESTAALGCLVKDYFPEPVTVSWNSGALTSGVHTFPAVLQSSGLYSLSSVVTVPSSSLGTKTYTCNVDHKPSNTKVDKRVESKYGPPCPPCPAPEFLGGPSVFLFPPKPKDTLMISRTPEVTCVVVDVSQEDPEVQFNWYVDGVEVHNAKTKPREEQFNSTYRVVSVLTVLHQDWLNGKEYKCKVSNKGLPSSIEKTISKAKGQPREPQVCTLPPSQEEMTKNQVSLSCAVKGFYPSDIAVEWESNGQPENNYKTTPPVLDSDGSFFLVSRLTVDKSRWQEGNVFSCSVMHEALHNHYTQKSLSLSLG light: DIQMNQSPSSLSASLGDTITITCHASQNINVWLSWYQQKPGNIPKLLIYKASNLHTGVPSRFSGSRSGTGFTLTISSLQPEDIATYYCHQGQSYPFTFGSGTKLEIKRTVAAPSVFIFPPSDEQLKSGTASVVCLLNNFYPREAKVQWKVDNALQSGNSQESVTEQDSKDSTYSLSSTLTLSKADYEKHKVYACEVTHQGLSSPVTKSFNRGEC
–	–	–	–	–	–	2.63	1.62	18	1.89	4.62	179	14.5	50.1	W3XX115-T2U0.E44-5.uIgG4V1 (Fc fusion, IL-2 with C-terminal 3 aa (TLT) deleted; E44 format, IgG4) APTSSSTKKTQLQLEHLLLDLQMILNGINNYKNPKLTRMLTFKFYMPKKATELKHLQCLEEELKPLEEVLNLAQSKNFHLRPRDLISNINVIVLELKGSETTFMCEYADETATIVEFLNRWITFCQSIISESKYGPPCPPCPAPEFLGGPSVFLFPPKPKDTLMISRTPEVTCVVVDVSQEDPEVQFNWYVDGVEVHNAKTKPREEQFNSTYRVVSVLTVLHQDWLNGKEYKCKVSNKGLPSSIEKTISKAKGQPREPQVYTLPPCQEEMTKNQVSLWCLVKGFYPSDIAVEWESNGQPENNYKTTPPVLDSDGSFFLYSRLTVDKSRWQEGNVFSCSVMHEALHNHYTQKSLSLSLG heavy: EIQLQQSGPELVKPGASVKVSCKASGYSFTDYNMYWVKQSHGESLEWIGYIDPYNGGTRYNQKFKGKATLTVDKSSSTAFMHLNSLTSEDSAVYYCARNGHWDGAWFAYWGQGTLVTVSAASTKGPSVFPLAPCSRSTSESTAALGCLVKDYFPEPVTVSWNSGALTSGVHTFPAVLQSSGLYSLSSVVTVPSSSLGTKTYTCNVDHKPSNTKVDKRVESKYGPPCPPCPAPEFLGGPSVFLFPPKPKDTLMISRTPEVTCVVVDVSQEDPEVQFNWYVDGVEVHNAKTKPREEQFNSTYRVVSVLTVLHQDWLNGKEYKCKVSNKGLPSSIEKTISKAKGQPREPQVCTLPPSQEEMTKNQVSLSCAVKGFYPSDIAVEWESNGQPENNYKTTPPVLDSDGSFFLVSRLTVDKSRWQEGNVFSCSVMHEALHNHYTQKSLSLSLG light: DIQMNQSPSSLSASLGDTITITCHASQNINVWLSWYQQKPGNIPKLLIYKASNLHTGVPSRFSGSRSGTGFTLTISSLQPEDIATYYCHQGQSYPFTFGSGTKLEIKRTVAAPSVFIFPPSDEQLKSGTASVVCLLNNFYPREAKVQWKVDNALQSGNSQESVTEQDSKDSTYSLSSTLTLSKADYEKHKVYACEVTHQGLSSPVTKSFNRGEC
–	–	–	–	–	–	1.55	1.76	96.5	10.1	1.44	55.6	8.52	54.5	W3XX115-T2U0.E44-9.uIgG4V1 (Fc fusion, IL-2 with C-terminal 7 aa (SIISTLT) deleted; E44 format, IgG4) APTSSSTKKTQLQLEHLLLDLQMILNGINNYKNPKLTRMLTFKFYMPKKATELKHLQCLEEELKPLEEVLNLAQSKNFHLRPRDLISNINVIVLELKGSETTFMCEYADETATIVEFLNRWITFCQESKYGPPCPPCPAPEFLGGPSVFLFPPKPKDTLMISRTPEVTCVVVDVSQEDPEVQFNWYVDGVEVHNAKTKPREEQFNSTYRVVSVLTVLHQDWLNGKEYKCKVSNKGLPSSIEKTISKAKGQPREPQVYTLPPCQEEMTKNQVSLWCLVKGFYPSDIAVEWESNGQPENNYKTTPPVLDSDGSFFLYSRLTVDKSRWQEGNVFSCSVMHEALHNHYTQKSLSLSLG heavy: EIQLQQSGPELVKPGASVKVSCKASGYSFTDYNMYWVKQSHGESLEWIGYIDPYNGGTRYNQKFKGKATLTVDKSSSTAFMHLNSLTSEDSAVYYCARNGHWDGAWFAYWGQGTLVTVSAASTKGPSVFPLAPCSRSTSESTAALGCLVKDYFPEPVTVSWNSGALTSGVHTFPAVLQSSGLYSLSSVVTVPSSSLGTKTYTCNVDHKPSNTKVDKRVESKYGPPCPPCPAPEFLGGPSVFLFPPKPKDTLMISRTPEVTCVVVDVSQEDPEVQFNWYVDGVEVHNAKTKPREEQFNSTYRVVSVLTVLHQDWLNGKEYKCKVSNKGLPSSIEKTISKAKGQPREPQVCTLPPSQEEMTKNQVSLSCAVKGFYPSDIAVEWESNGQPENNYKTTPPVLDSDGSFFLVSRLTVDKSRWQEGNVFSCSVMHEALHNHYTQKSLSLSLG light: DIQMNQSPSSLSASLGDTITITCHASQNINVWLSWYQQKPGNIPKLLIYKASNLHTGVPSRFSGSRSGTGFTLTISSLQPEDIATYYCHQGQSYPFTFGSGTKLEIKRTVAAPSVFIFPPSDEQLKSGTASVVCLLNNFYPREAKVQWKVDNALQSGNSQESVTEQDSKDSTYSLSSTLTLSKADYEKHKVYACEVTHQGLSSPVTKSFNRGEC
